Source: the supplement of paper PMC9170038

system: MS2 coat protein; assay: apparent KD of MS2 coat protein; higher = weaker reporter binding; details: Eterna round: R107; input ligand: none
Summary of the method: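 For every design, apparent KD is the median of normalised binding-curve fits from its clusters. The RNA switches were transcribed on-chip from Illumina sequencing clusters and titrated with SNAP-549-labelled MS2 coat protein (twofold steps, 0.7 or 1.5 nM to 3 µM; 0.8–1.5 h to 10–20 min per step). Titrations used 100 mM Tris-HCl pH 7.5, 80 mM KCl, 4 mM MgCl2, without or with constant ligand.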

Going from “UUGGGUUUGUGAAGGAGCGGGUAUGUUUUAUAGUGGAUCCUAACAUGAGGAUCACCCAUGUCCCAGGUAGGUCGCGCGGGUUUGG [12.T]” to “UGGUCCGGCGGAAGGAGCGACAUGAGGAUCACCCAUGUCUCCCGUUAUGGGAGUUCUUUAGGUCAGGUAGGUCGCCGGCGGGUCA [#1 Exclusion - Arginine B Attempt #11 (Inspired by Omei)]”, the “apparent KD of MS2 coat protein” value falls from 78.3 nM to 51.6 nM (1.5-fold).

First: UCGCGAUAGAGAAGGAGCGUCAACACCACUUAACAUGAGGAUCACCCAUGUGUUACUUUAAGACAGGUAGGUCGCUCUAGCGCUU [JR_Nu_ExcArginiB_Sub027]
Second: GGGUGGUAGGCGGCCGCCACUGAUUUUCAUUCAUAGAUGACAUGAGGAUCACCCAUGUUUAUGUGCAGGACCGGGCCUGCUGUGG [aaaU]
The “apparent KD of MS2 coat protein” value of the first is 12-fold lower: 12.4 nM for the first, 144 nM for the second.

“GGAGGGACCAGAAGGAGCGACAUGAGGAUCACCCAUGUCUCCCGUUAUGGGAGUUCUUUAGGUCAGGUAGGUCGCUGGUCCCUCC [#1 Exclusion - Arginine B Attempt #6 (Inspired by Omei)]” and “UGUAUGUGAUCUGAUACCAGCUAAUAAAGCUUGAGGAUCACCCAAGUGGAGCGGAAACGCAGCCCUUGGCAGCAGAUCGCAUACU [Denovo 8 #StaticStem #AlternativeMS2]” are within 1.5-fold of each other in “apparent KD of MS2 coat protein” value: 158 nM for the first, 169 nM for the second.

“AUUCUUUACUGAAGGAGCGUCAUUCUUACAUGAGGAUCACCCAUGUUUAUUCUUUAUUAUUGACAGGUAGGUCGCAGAUUUUUUA [JR_SSArginiB_Sub018]” and “CUAUAUAGAAAACUAUAUAGAGUGGGUGAACGAGGACCGGUACGGCCGCCACUCGGACAUGAGGAUCACCCAUGUCCAUGUGAAA [AstrosExyTryA#25]” are within 1.5-fold of each other in “apparent KD of MS2 coat protein” value: 13.8 nM for the first, 14.8 nM for the second.

Going from “AAAGGUCGCAAUAAAUCUCCUACAUGUGAAGGAGCGCCCGAAAGGGCAGGUAGGUCGCACAUGAGGAUCACCCAUGUGAGCGACC [MAT - Exclusion Arginine A - Mod of Eli - D2]” to “UUAAUUAUAUAUUAUAUAAUAUAUACAGAAGGAGCGUGAUAAAACACAGGUAGGUCGCUGAAGGGAACAUGAGGAUCACCCAUGU [AstrosSSArgA#1]”, the “apparent KD of MS2 coat protein” value rises from 12.4 nM to 25.6 nM (2.1-fold).

Going from “CACAUGAGGAUCACCCAUGUCUGAACUGAAGGAGCGCUAAACAAGGCAGGUAGGUCGCGGAAUCGUGUGUGCAUAUGCACACGCG [9.V]” to “UUUUACGGCGAUCUGGGUUUACCAGAUCGGCGAGGACCGGUACGGCCGCCACUCGUGUUUCUUUAACAUGAGGAUCACCCAUGUA [SSTA #1]”, the “apparent KD of MS2 coat protein” value rises from 22 nM to 38.4 nM (1.7-fold).

Compared with “UGUAUGUGAUCUGAUACCAGCGUUGAUAACCUGAGGAUCACCCUGGUAAGGCGAAAGCCGCGCCCUUGGCAGCAGAUCGCAUACU”, “CCUGCUACGGGAAACCGUAGCAGGAAUGAUACCAGUAGGAAAGACUACCCUUGGCAGCAUGGGUAACAUGAGGAUCACCCAUGUU [SSThA NP+V+V2 #6 Same Structure]” is 1.8-fold lower in “apparent KD of MS2 coat protein” value: 237 nM for the first, 132 nM for the second.

First: GUGACUUAAAGGCGCCAUUUGUGAUAGGAAGGAGCGGCGAAAUAGCCAGGUAGGUCGCCUAUACAUGAGGAUCACCCAUGUCACC [XARG-A 26]
Second: AGAUGUAGCGGAAGGAGCGACAUGAGGAUCACCCAUGUCUCCCGUUGUGGGAGUUCCUUAGGUCAGGUAGGUCGCCGUUACGUCA [Omei Arg B SS B v2]
The “apparent KD of MS2 coat protein” value of the first is 2.3-fold lower: 98.5 nM for the first, 230 nM for the second.

Compared with “GGUUGGUGUAUAUAUAUAUUGAUUACUGAAGGAGCGGGAAAUAACCCAGGUAGGUCGCAGAGAUCCACAUGAGGAUCACCCAUGU [!0.J]”, “GCUAGUGGCAGAAGGAGCGACAUUUUAAGUGGUCGAUACAUGAGGAUCACCCAUGUACUAUGUCAGGUAGGUCGCUGCCACUAGC [EAB NP+V+V2 #3 +-Same Structure]” is 1.5-fold lower in “apparent KD of MS2 coat protein” value: 53.7 nM for the first, 34.8 nM for the second.

For “GACUCUGUCGGAAGGAGCGCAGAGCCGGUCUUCUACAUGAGGAUCACCCAUGUGCUGGUUAUGCAGGUAGGUCGCCGACGCGUGG [Ismatiza]”, the “apparent KD of MS2 coat protein” value was 27.1 nM.

same assay, conditions: Eterna round: R107; input ligand: theophylline 20 uM

“UUAGAUAUGACAGAUACCAGCGUGUUAUAAAACAUGAGGAUCACCCAUGUAGUGAUCGAGCGCCCUUGGCAGCUGGUGUGUUUGG [7.R]” and “UUGGGUUUGUGAAGGAGCGGGUAUGUUUUAUAGUGGAUCCUAACAUGAGGAUCACCCAUGUCCCAGGUAGGUCGCGCGGGUUUGG [12.T]” are within 1.5-fold of each other in “apparent KD of MS2 coat protein” value: 175 nM for the first, 203 nM for the second.

“GGAUUAGAGGCGGCCGCCACUGGAACAUGAGGAUCACCCAUGUAGUGCAUGUAAUUAACCUCGAUCAGGACCGGGCCGAUAGUCA [Exclusion - Tryptophan B / A]” and “UGGUCCGGCGGAAGGAGCGACAUGAGGAUCACCCAUGUCUCCCGUUAUGGGAGUUCUUUAGGUCAGGUAGGUCGCCGGCGGGUCA [#1 Exclusion - Arginine B Attempt #11 (Inspired by Omei)]” are within 1.5-fold of each other in “apparent KD of MS2 coat protein” value: 85.2 nM for the first, 80.6 nM for the second.

Compared with “ACUACAAAGUAGUAUAUACGAAAGUAUAGACGAGGACCGGUACGGCCGCCACUCGGUACCGGAAACACAUGAGGAUCACCCAUGU [Ex_TrypA - 3H]”, “UCGCGAUAGAGAAGGAGCGUCAACACCACUUAACAUGAGGAUCACCCAUGUGUUACUUUAAGACAGGUAGGUCGCUCUAGCGCUU [JR_Nu_ExcArginiB_Sub027]” is 1.5-fold lower in “apparent KD of MS2 coat protein” value: 25 nM for the first, 16.5 nM for the second.

Compared with “CGUAUUGGAAACAGUACGAGUGAUCCGGUCCGAGGACCGGUACGGCCGCCACUCGAAAUAAAUAAACAUGAGGAUCACCCAUGUA [Ex Tryptophan A 9]”, “GGGUGGUAGGCGGCCGCCACUGAUUUUCAUUCAUAGAUGACAUGAGGAUCACCCAUGUUUAUGUGCAGGACCGGGCCUGCUGUGG [aaaU]” is 5.6-fold higher in “apparent KD of MS2 coat protein” value: 18.2 nM for the first, 102 nM for the second.

First: GGUUACUCUACGGCCGCCACUGUCAUGUAAAGAUACCUGUACAUGACAUGAGGAUCACCCAUGUGCAGGACCGGGUAGUGUAACC [Tryptophan B 18]
Second: GGAGGGACCAGAAGGAGCGACAUGAGGAUCACCCAUGUCUCCCGUUAUGGGAGUUCUUUAGGUCAGGUAGGUCGCUGGUCCCUCC [#1 Exclusion - Arginine B Attempt #6 (Inspired by Omei)]
The “apparent KD of MS2 coat protein” value of the first is 2-fold higher: 177 nM for the first, 87.3 nM for the second.

Going from “UGUAUGUGAUCUGAUACCAGCUAAUAAAGCUUGAGGAUCACCCAAGUGGAGCGGAAACGCAGCCCUUGGCAGCAGAUCGCAUACU [Denovo 8 #StaticStem #AlternativeMS2]” to “UGUUUUGUGAUGGAUACCAGCAGAGAAAACGUUUAUCCUAACAUGAGGAUCACCCAUGUAUGCCCUUGGCAGCUGUUGUGGGAUA [8.R]”, the “apparent KD of MS2 coat protein” value falls from 103 nM to 43.9 nM (2.3-fold).

Going from “AAUUUAUGGUUCUUGAUGUAGUAUCUAUUUCGAGGACCGGUACGGCCGCCACUCGUAAAUUACAUGAGGAUCACCCAUGUUAGCU [JR_ExcTryptoA_Sub011]” to “AUUCUUUACUGAAGGAGCGUCAUUCUUACAUGAGGAUCACCCAUGUUUAUUCUUUAUUAUUGACAGGUAGGUCGCAGAUUUUUUA [JR_SSArginiB_Sub018]”, the “apparent KD of MS2 coat protein” value falls from 27 nM to 17.7 nM (1.5-fold).

Going from “AACACAUGAGGAUCACCCAUGUUCUCGUGUCGAGGACCGGUACGGCCGCCACUCGGUUCUCGCGAGGAUGGUCAAAGACUAUCCA [Omei Trp A SS B v7]” to “AUAAAUAAUAAAUAAAAUAAAAUGGGUGAACGAGGACCGGUACGGCCGCCACUCGGACAUGAGGAUCACCCAUGUCCAUGUGAAA [#21 Exclusion Tryptophan A]”, the “apparent KD of MS2 coat protein” value falls from 57.4 nM to 20.3 nM (2.8-fold).

Compared with “UACAUGAGGAUCACCCAUGUGGCGGAUGAUACCAGUAUGGUGACAUACCCUUGGCAGCAUGCUAUGAGGAUCACCCAUGUGUGCA [EThA NP+V+V2 #11 DOUBLE]”, “CUAUAUAGAAAACUAUAUAGAGUGGGUGAACGAGGACCGGUACGGCCGCCACUCGGACAUGAGGAUCACCCAUGUCCAUGUGAAA [AstrosExyTryA#25]” is 6.5-fold lower in “apparent KD of MS2 coat protein” value: 84.9 nM for the first, 13 nM for the second.

In the case of “AAAGGUCGCAAUAAAUCUCCUACAUGUGAAGGAGCGCCCGAAAGGGCAGGUAGGUCGCACAUGAGGAUCACCCAUGUGAGCGACC [MAT - Exclusion Arginine A - Mod of Eli - D2]”, the “apparent KD of MS2 coat protein” value is reported as 14.6 nM.
